# In US20200207857A1:
# What was measured:
# [1] = biological target: Recombinant protein Claudin 18.2; experiment: ELISA, recombinant Claudin 18.2 coated at 4.5 ug/mL (Example 67), OD370; Kd table under the graph, no unit in the table, unit from the x axis log[antibody] nM
# [2] = biological target: Recombinant protein Claudin 18.2; experiment: ELISA on plate-coated recombinant Claudin 18.2, OD450; Kd table under the graph, no unit in the table, unit from the x axis log[antibody] nM
# [3] = biological target: Recombinant protein Claudin 18.2; experiment: ELISA, recombinant Claudin 18.2 coated at 4.5 ug/mL (Example 67), OD450; Kd box under the graph without column head (the only rising curve is h5C9o_CLN18.2), no unit in the box, unit from the x axis log[antibody] nM
# [4] = biological target: Recombinant protein Claudin 18.2; experiment: ELISA on plate-coated recombinant Claudin 18.2, OD450; Kd table under the graph, no unit in the table, unit from the x axis log[antibody] nM; remark: listed apart in the source
# [5] = biological target: Recombinant protein Claudin 18.2; experiment: ELISA-based assay on Claudin 18.2, y axis RLU; Kd table under the graph, no unit in the table, unit from the x axis log[antibody] nM
# [6] = biological target: Recombinant protein Claudin 18.2; experiment: ELISA on plate-coated recombinant Claudin 18.2, OD370; Kd table under the graph, no unit in the table, unit from the x axis log[antibody] nM
# [7] = biological target: Recombinant protein Claudin 18.2; experiment: ELISA as in Example 1, recombinant Claudin 18.2 coated on the plate, OD450, linear axis in ng/ml
# [8] = biological target: human Claudin 18.1 (CLDN 18.1) expressed on HEK293 cells (human) (UniProt P56856); experiment: flow cytometry, 293T-CLDN18.1 cells, FL1-A histogram, gate P1; untransfected 293T: M1 0.0%
# Sequence of human Claudin 18.1 (CLDN 18.1) expressed on HEK293 cells (human) (P56856 whole entry): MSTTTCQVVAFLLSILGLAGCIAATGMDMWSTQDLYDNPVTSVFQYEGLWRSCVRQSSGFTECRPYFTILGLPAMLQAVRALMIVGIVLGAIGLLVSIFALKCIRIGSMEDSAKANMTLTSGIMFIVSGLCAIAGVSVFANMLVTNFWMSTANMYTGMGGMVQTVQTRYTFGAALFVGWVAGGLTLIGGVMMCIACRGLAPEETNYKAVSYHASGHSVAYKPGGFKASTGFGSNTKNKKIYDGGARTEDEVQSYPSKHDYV
# [9] = biological target: human Claudin 18.1 (CLDN 18.1) expressed on HEK293 cells (human) (UniProt P56856); experiment: flow cytometry, 293T-CLDN18.1 cells, FL1-A histogram, gate P1; untransfected 293T: M1 0.1%
# [10] = biological target: Recombinant protein Claudin 18.2; experiment: binding study 'as in Example 1'; method not named (ELISA on recombinant Claudin 18.2 assumed)
# Sequence of Recombinant protein Claudin 18.2 (chain, as listed by the source limits assumed, form in doubt): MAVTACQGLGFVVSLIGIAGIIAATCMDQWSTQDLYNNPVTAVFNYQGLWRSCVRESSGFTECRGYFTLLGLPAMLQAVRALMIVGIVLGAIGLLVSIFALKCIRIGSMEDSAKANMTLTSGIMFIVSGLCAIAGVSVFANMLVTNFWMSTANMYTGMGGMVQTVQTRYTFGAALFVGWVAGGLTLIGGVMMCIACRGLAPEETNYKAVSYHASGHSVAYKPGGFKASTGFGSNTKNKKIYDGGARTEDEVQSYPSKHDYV
binder,measurement,setting,value
"chimeric anti-CLDN 18.2 antibody ch9A1 (antibody, human IgG1, kappa, V domains shown) VH: EVQLQQSGAELVRPGTSVKVSCKASRYAFTNYLIEWVKQRPGQGLEWIGMINPGSGGTHYNEKFKVKATLTADKSSSTAYMQLSSLTSDDSAVYFCARGGFGNSFAYWGQGTLVTVSA VL: DILLTQSPLSLTVTAGEKVTMSCKSSQSLLNGGNLKNYLTWYQQKPGQPPKLLTYWASTRESGVPVRFTGSGSGTDFTLTISSVQAEDLAVYYCQNGYFYPYTFGGGTKLEIKR",Kd,[1],101 pM
"Anti-CLDN 18.2-5C9o (humanized antibody h5C9o) (antibody, V domains shown) VH: EVQLVESGGGLVQPGGSLRLSCAVSGYTFSMNWVRQAPGKGLEWVAWINMYTGEPTYADDFKGRFTISRDDSKNTLYLQMNSLRAEDTAVYYCARLYNGNSLDYWGQGTLVTVSS VL: DIQMTQSPSSLSASVGDRVTITCKSSQSLLNSGNQKSYLTWYQQKPGKAPKLLIYWASTLESGVPSRFSGSGSGTDYTLTISSLQPEDFATYYCQNAYSFPFTFGQGTKVEIK",Kd,[2],89.2 pM
same,Kd,[3],87.3 pM
same,Kd,[4],128 pM
same,Kd,[5],140 pM
"Anti-CLDN 18.2-9A1 (antibody, V domains shown) VH: VQLQQSGAELVRPGTSVKVSCKASRYAFTNYLIEWVKQRPGQGLEWIGMINPGSGGTHYNEKFKVKATLTADKSSSTAYMQLSSLTSDDSAVYFCARGGFGNSFAYWGQGTLVTVSA VL: DILLTQSPLSLTVTAGEKVTMSCKSSQSLLNGGNLKNYLTWYQQKPGQPPKLLTYWASTRESGVPVRFTGSGSGTDFTLTISSVQAEDLAVYYCQNGYFYPYTFGGGTKLEIK",Kd,[6],53.6 pM
same,EC50 (read off the curve),[7],0.06 µg/mL
same,% of cells in gate M1,[8],1.3%
"Anti-CLDN 18.2-5C9 (antibody, V domains shown) VH: VKLQESGPELKKPGETVKISCKASGYTFTNYGMNWVKQAPGKGLKWMGWINMYTGEPTYADDFKGRFAFSLETSASTAYLQINNLKNEDTATYFCSRLYNGNSLDYWGQGTSLTVSS VL: DILLTQSPLSLTVTAGEKVTMSCKSSQSLLNSGNQKSYLTWYQQKPGQPPKLLLYWASTRESGVPARFTGSGSGTDFSLTISSVQTEDLAVYYCQNAYSFPFTFGSGTKLEIN",% of cells in gate M1,[9],0.7%
same,Kd,[6],69.9 pM
same,EC50 (read off the curve),[7],0.05 µg/mL
"Anti-CLDN 18.2-15G11 (antibody, V domains shown) VH: VQLQESGGGLVQPGGSRKLSCAASGFSFSSFGMHWVRQAPEKGLEWVAFISSGSSPIYYADTVKGRFTVSRDNPKNTLFLQMTSLRSEDTAMYFCARNYYGNAMDYWGQGSSVTVSS VL: DIMMTQSPLSLTVTAGEKVTMNCKSSQSLLNGGNQKNYLAWYQQKPGQPPKLLIYWASTRESGVPARFTGSGSGTDFTLTINTVQAEDLAVYYCQNDYFYPLTFGTGTKLELK",% of cells in gate M1,[9],0.7%
same,Kd,[6],66.2 pM
same,EC50 (read off the curve),[7],0.06 µg/mL
"Anti-CLDN 18.2-5H1 (antibody, V domains shown) VH: VQLQESGAELVRPGTSVKVSCKASGYAFTNYLIEWIKQRPGQGLEWIGMINPGSGGTKYNEKFKGKASLTADKTSSTAYMQLSSLTSDDSAVYFCARGGFGNSFAYWGQGTLVTVSA VL: DIMMTQSPLSLTVTAGEKVTMTCKSSQSLLNSGNLKNYLTWYQQKPGQPPKLLTYWASTRESGVPTRFTGSGSATDFTLTISSVQAEDLAVYYCQNAYFYPYTFGGGTKLEIK",Kd,[10],320 pM
"Anti-CLDN 18.2-7H1 (antibody, V domains shown) VL: DIVLTQSPAILSVSPGEKVTMTCRASSSVSYMHWYQQKPGSSPKPWIYGTSNLASGVPARFSGSGSGTSYSLTISRVEAEDAATYYCQQWSSNPLTFGTGTKLELK V domain: KVQLQESGGGSVQPGGSLKLSCAASGFTFSSYSMSWVRQTPEKRLEWVAYISNLGGATYYPDTVKGRFTVSRDNARNSLYLQMTSLKSDDTAMYYCTRHNYGYDGFADWGQGTLATVSA",Kd,[10],267 pM
